Experimental data: the supplement of paper PMC10567573

B1: STK38L (parent)
chain: FCIDSENRIGNSGVEEIKGHPFFE
B2: TRIM14 (parent)
chain: YARTPTLDPDTMHARLRLSADRLT

Variants of: B1
Test: protein stability index of a GFP-peptide fusion (GPS, HEK-293T) (PSI 1-6); higher = more stable
Details: c terminus: a fixed tail appended
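Note: lentivirally expressed fusions sorted by FACS into six bins by GFP to DsRed ratio, PSI derived from sequencing read proportions per bin multiplied by bin number.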

Protein stability index of substitutions, site by site:
K18: D 4.12, I 2.31, N 2.8, V 2.63, S 3, Y 2.16, H 2.34, Q 2.2, L 2.89, A 2.48, G 2.36, T 2.6, P 3.07, F 2.12, C 2.82
I9: G 2.58, L 1.99, M 2.03, T 3.21, E 3.42, Y 2.58, Q 2.65, C 2.38, K 2.19, P 3.17, F 1.9, S 2.82, V 2.73
F22: Y 2.42, V 4.11, E 4.79, P 4.32, C 3.81, G 4.37, T 4.5, H 4.33, A 3.58, L 3.74, R 4.21
G19: Y 1.99, W 2.27, P 1.99, Q 2.37, L 1.87, D 3.21, A 2.15, F 1.8, R 1.63, S 2.43, C 1.68, E 3.45, N 2.68, T 2.19
D4: W 1.84, A 2.09, Q 2.78, F 1.46, K 2.83, G 2, M 2.86, E 2.91, H 2.8, P 3.47, R 1.7, Y 2.07, V 2.22, N 1.89, I 2.24
H20: A 3.79, L 2.69, P 3.45, I 2.95, T 3.83, G 3.09, R 2.35, Q 3.48, V 3.19
P21: C 2.07, G 2.54, W 1.9, Q 2.99, M 1.94, L 1.42, V 2.28, R 2.97, S 3.73, Y 2.25, H 2.89, D 4.22, A 2.72
G13: I 2.47, T 2.75, L 2.22, N 2.73, K 2.44, D 2.55, Q 2.44, H 2.56, P 2.68, Y 2.28, E 3.12, M 2.12
E16: M 2.28, R 2.3, K 1.98, Q 2.54, N 2.06, D 1.89, S 1.85, F 2.25, C 2.23, T 2.35, V 1.87, I 1.55
E24: S 2.15, N 2.19, C 2.7, T 1.21, H 1.54, K 1.72, P 2.01, Q 1.75, L 4, W 1.61, F 1.74, V 1.71
N7: E 2.87, R 1.56, V 1.22, H 1.91, W 4.28, T 2.17, S 2.09, C 1.06, Y 1.8, G 2.26
F23: T 1.46, K 2.19, N 4.2, Y 3.35, W 2.02, V 1.85, L 2.52, S 1.93, H 2.69, C 1.8, A 1.78
E6: Y 1.71, F 1.46, S 2.86, D 1.91, A 1.37, N 1.59, V 1.8, G 1.98, K 2.12, R 2
N11: D 2.73, A 2.11, K 2.03, T 1.81, S 1.99, R 2.31, Y 2.12, C 2.3, E 3.11, Q 2.73, G 2.35, L 1.65
G10: V 1.54, P 2.31, T 2.38, M 2.11, D 2.75, K 2.53, E 2.54, A 2.27, H 2.71, Y 1.79, W 1.1, S 2.39, I 1.87
C2: H 1.99, V 2.03, N 2.93, F 3.12, Q 2.33, W 2.62, D 3.12, L 2.94, A 2.58, I 2.69
V14: E 2.96, H 2.06, G 2.01, M 2.47, W 1.96, Y 2.96, T 2.29, A 3.13, F 1.6, K 2.72, C 2.27
S5: F 2.3, P 1.47, H 2.5, E 3.39, N 2.4, L 1.06, A 1.95, C 2, Y 1.88, R 2.21, G 2.53, Q 2.49
I17: R 2.1, S 3.17, P 2.54, N 2.88, T 3.17, E 3.47, F 2.36, D 3.1, G 2.38, Q 2.53, K 2.35
S12: W 1.5, D 2.32, T 2.52, F 1.84, V 2, K 2.78, P 2.32, G 1.91, Q 2.2
I3: L 2.57, R 2.49, F 2.23, H 2.75, C 1.96, M 2.9, S 2.3, P 1.85, A 2.04, Q 3.06, V 3.26, D 4.02
R8: N 2.94, V 2.02, S 2.55, Q 2.83, K 2.37, L 2.34, P 2.71, C 2.17
F1: E 4.61, H 4.55, A 4.85, R 5.09, D 4.9, K 4.3, T 4.42, P 4.45, S 4.34, M 4.78, W 3.19, L 3.66
E15: K 2.22, V 2.52, R 2.08, N 1.64, Q 1.57, M 2.51, G 2.08, C 2.68, D 1.62, A 1.99, P 1.98

Variants of: B2
Test: as above
Details: c terminus: a fixed tail appended

Protein stability index of substitutions, site by site:
R22: N 2.77, L 2.68, M 2.16, K 2.33, T 2.62, D 3.09, F 2.52, W 2.01, S 2.81, E 3.31, I 2.74, Q 2.59, G 2.76, A 2.57, V 2.26, C 2.76, P 2.31, Y 2.62, H 2.97
L23: Y 2.44, P 2.67, W 2.03, R 3.21, E 4.03, S 2.73, N 2.87, Q 3.12, H 3.21, C 2.51, D 3.38, G 2.58, K 3.43, A 2.96, M 3.06, T 2.55, F 2.13, I 2.62
T24: A 2.82, C 2.51, P 2.17, E 3.02, Y 2.08, V 2.21, S 2.54, L 1.76, D 3.87, I 2.84, K 3.2, H 2.39, W 1.73, G 3.09, N 2.92, M 2.48, R 3.13, Q 2.67, F 1.65
